Measurements as given in patent US20260294251A1, “Method for Medical Imaging” (Integro Theranositcs, LLC, priority 2023, published 2026).
Read-outs that look alike come from different tables or passages of the source. Positions of bridges follow the written chain, without caps; N, C: chain ends. Non-standard residues stand in square brackets, D forms with d. Residues, ends and D or L forms follow the SMILES beside them. *: point of attachment. X1 = CC1(C)C(/C=C/C=C/C=C/C=C2/N(CCC(=O)*)c3ccc4ccccc4c3C2(C)C)=[N+](CCC(=O)[O-])c2ccc3ccccc3c21

Columns and labels:
[1] = system: Salmonella typhimurium (TA100, TA1535, TA98, TA1537) and Escherichia coli (WP2uvrA); experiment: GLP bacterial mutagenicity (Ames) test; format: cell-based; details: doses up to 1000 μg/plate; previous study
Protocol: (§1) LS301 was negative for inducing structural/numerical chromosomal aberrations in Wolff-Bloom-Litton Chinese hamster ovary (CHO-WBL) cells with and without an S9 activation system. In a previous study, the potential for LS301 to cause genotoxicity was evaluated in a GLP bacterial mutagenicity (Ames) test in 4 strains of Salmonella typhimurium (TA100, TA1535, TA98, TA1537) and Escherichia coli (WP2uvrA) at doses up to 1000 μg/plate. The results were negative for LS301 mutagenicity.

[2] = system: respiratory system functional parameters; experiment: Respiratory safety pharmacology after single IV administration; format: in vivo, Sprague-Dawley rats; details: single IV up to 20 mg/kg, up to 24 hours
Description: (§2) Results from safety pharmacology studies further support the potential safety of L301 and LS301-IT.

tumors [3] = details: mouse, in vivo, iv
cardiovascular function = experiment: Cardiovascular safety pharmacology after single IV administration; format: in vivo, rat; details: rats, single IV up to 20 mg/kg, up to 24 hours
Description: as §2

[4] = system: Wolff-Bloom-Litton Chinese hamster ovary (CHO-WBL) cells; experiment: Chromosomal aberration test in CHO-WBL cells; format: cell-based; details: with and without an S9 activation system
Protocol: as §1

[5] = system: mouse breast cancer model; details: in vivo, iv
tumors [6] = experiment: Proof of concept imaging and biodistribution in mice after single IV delivery
rats = experiment: Single IV dose toxicity study in rats; format: in vivo, rat
Description: (§3) Therefore, the changes were considered non-adverse.

[7] = Single IV dose toxicity study in rats; format: in vivo, rat; details: rat, in vivo, iv; for selectivity ratio: starting dose 0.025 mg/kg, read-out: safety margin
Description: as §3

[8] = biological target: human Ether-à-go-go related gene (hERG) (Homo sapiens, UniProt Q12809); experiment: human Ether-à-go-go related gene (hERG) assay; format: cell-based
Description: as §2

[9] = rat, in vivo, iv
Description: (§4) Appropriate bioanalytical methods were developed and validated to measure LS301 concentrations in rat plasma (LC-MS/MS) and various dosing formulations (HPLC-UV, UPLC) per good laboratory practice (GLP) regulations.

[10] = Toxicokinetics at the NOAEL in the rat toxicity study; format: in vivo; details: plasma, iv, 20 mg/kg, Day 1, at NOAEL 20 mg/kg; for AUC(0-t) at 48 h: read-out: AUC0-48h; for C0: read-out: Co
Protocol: In this study, the NOAEL was considered 20 mg/kg. The corresponding AUC0-48h and Co of LS301 at the established NOAEL on Day 1 were 14200 h*ng/ml and 69900 ng/mL for males and 14900 h*ng/mL and 98800 ng/mL for females, respectively. Therefore, the NOAEL of 20 mg/kg is equivalent to a 3.226 mg/kg human dose.

male rats = experiment: In-vivo safety pharmacology (functional observation battery) in male rats; set-up: species or system rat
Description: as §2

[11] = Pharmacokinetics in the rat after single IV delivery
Description: as §4

Chain of human Ether-à-go-go related gene (hERG) (Q12809 whole entry): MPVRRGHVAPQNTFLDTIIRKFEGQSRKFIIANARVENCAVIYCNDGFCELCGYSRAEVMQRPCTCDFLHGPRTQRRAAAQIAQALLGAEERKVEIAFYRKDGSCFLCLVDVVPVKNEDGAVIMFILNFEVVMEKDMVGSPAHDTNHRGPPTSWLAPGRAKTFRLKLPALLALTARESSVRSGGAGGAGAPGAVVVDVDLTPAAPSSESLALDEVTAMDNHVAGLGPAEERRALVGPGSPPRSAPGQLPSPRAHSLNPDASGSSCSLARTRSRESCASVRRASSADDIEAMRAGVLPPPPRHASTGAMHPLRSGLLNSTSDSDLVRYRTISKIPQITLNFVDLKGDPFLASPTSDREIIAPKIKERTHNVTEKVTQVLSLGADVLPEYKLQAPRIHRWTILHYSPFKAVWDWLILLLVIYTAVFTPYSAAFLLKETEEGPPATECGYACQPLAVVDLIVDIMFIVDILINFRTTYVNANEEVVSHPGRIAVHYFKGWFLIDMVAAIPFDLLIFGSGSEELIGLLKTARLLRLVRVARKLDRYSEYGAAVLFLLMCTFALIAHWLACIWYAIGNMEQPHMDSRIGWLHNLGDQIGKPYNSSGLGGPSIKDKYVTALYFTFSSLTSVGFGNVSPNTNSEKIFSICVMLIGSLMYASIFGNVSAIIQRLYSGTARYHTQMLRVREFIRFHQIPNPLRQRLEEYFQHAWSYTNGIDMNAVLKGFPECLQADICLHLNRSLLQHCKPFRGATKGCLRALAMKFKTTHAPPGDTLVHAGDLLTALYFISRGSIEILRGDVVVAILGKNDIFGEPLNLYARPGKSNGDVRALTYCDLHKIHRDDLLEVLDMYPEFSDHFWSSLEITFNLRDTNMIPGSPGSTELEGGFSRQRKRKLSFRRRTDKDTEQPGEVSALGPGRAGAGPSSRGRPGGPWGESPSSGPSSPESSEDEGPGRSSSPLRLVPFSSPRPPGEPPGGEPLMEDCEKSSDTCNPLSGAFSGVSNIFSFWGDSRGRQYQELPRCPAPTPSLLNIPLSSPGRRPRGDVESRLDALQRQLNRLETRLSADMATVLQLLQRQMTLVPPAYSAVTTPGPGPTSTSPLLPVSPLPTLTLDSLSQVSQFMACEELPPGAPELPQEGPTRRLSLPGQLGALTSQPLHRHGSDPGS

For CC1(C)C(/C=C/C=C/C=C/C=C2/N(CCC(=O)N[C@@H]3CSSC[C@@H](C(=O)N[C@@H](CCCCN)C(=O)O)NC(=O)[C@@H]4CCCN4C(=O)[C@H](CO)NC(=O)[C@H](CC(=O)O)NC(=O)[C@H](CCCNC(=N)N)NC(=O)CNC3=O)c3ccc4ccccc4c3C2(C)C)=[N+](CCC(=O)[O-])c2ccc3ccccc3c21 [LS301, cypate-cyclo(Cys-Gly-Arg-Asp-Ser-Pro-Cys)-Lys-OH] (X1-[dC]GRDSPCK-OH; disulfide 1-7), the “mutagenicity (Ames)” value [1] was “negative”, the “respiratory system functional parameters (tidal volume, respiratory rate, derived minute volume)” value [2] was “did not affect respiratory system functional parameters” and the “tumor uptake (biodistribution)” value (tumors [3]) was “high uptake in tumors”. The cardiovascular function (cardiovascular function) was “did not affect cardiovascular function”, the structural/numerical chromosomal aberrations [4] was “negative” and the tissue distribution [5] was “distributes and accumulates in tumor and non-tumor tissues, especially the liver and kidneys”. For the same compound, the “accumulation in other tissues” value (tumors [6]) was “accumulated in other tissues, especially the excretory organs of the liver and kidneys”, the “binding and accumulation in tumors” value (tumors [6]) was “could bind and accumulate in tumors” and the tumor-to-background ratio (tumors [6]; four hours post-injection) was “clear tumor-to-background ratio”. The “mortalities or changes in body weight, food consumption, ophthalmology, hematology, coagulation, and urinalysis” value (rats; rats, up to 20 mg/kg LS301) was “no mortalities or test article-related changes”, the tolerability (rats; rats, up to 20 mg/kg LS301) was “tolerated LS301 and LS301-IT well” and the resolution of discoloration (rats; ≥10 mg/kg, rat toxicity study) was “resolved on Day 15”. The NOAEL ([7]; correction factor of 0.88, read-out: corrected NOAEL) was 17.6 mg/kg, the NOAEL ([7]; single IV, read-out: NOAEL) was 20 mg/kg and the selectivity ratio ([7]; NOAEL 20 mg/kg) was 129. The selectivity ratio ([7]; corrected NOAEL 17.6 mg/kg) was 114, the IC50 [8] was greater than 9.98 µM and the tissue distribution [9] was “widely distributed to tissues”. The volume of distribution [9] was “greater than the total volume of body water in humans”, the AUC(0-t) at 48 h ([10]; females) was 14900 ng·h/mL and the C0 ([10]; females) was 98.8 µg/mL. For the same compound, the AUC(0-t) at 48 h ([10]; males) was 14200 ng·h/mL, the C0 ([10]; males) was 69.9 µg/mL and the mortality (male rats; male rats, up to 20 mg/kg) was “No mortalities”. For the same compound, the “functional observation battery (FOB) parameters” value (male rats; male rats, up to 20 mg/kg, motor activity, behavior, coordination, reflexes, body temperature) was “no effects”, the “discoloration (green)” value (male rats; male rats, ≥10 mg/kg) was “transient LS301-related discoloration (green)” and the “effects on central nervous, cardiovascular, and respiratory functions” value (male rats; rats, doses up to 20 mg/kg) was “no significant effects”. The tolerability (male rats; rats, doses up to 20 mg/kg) was “Rats tolerated LS301 well”, the half-life ([11]; rat) was “fewer than five hours” and the “systemic exposure versus dose” value ([11]; rat) was “increased proportionally with dose”. The “difference in systemic exposure between male and female” value ([11]; rats) was “No differences were seen”.
